Results as given in the supplement of paper PMC6757056.
± gives the standard deviation of the averaged measurements.

B1: library; a variant is named by its letters at N, in order (parent)
chain: GCUGUCACCGGUGUAUUACCCUAGUGGUCGACCGGUCUGAUGAGUCUNNNNNNAGACGAAACAGC

Legend:
hypoxanthine [1] = variants of: B1; experiment: normalized RNA/DNA level with ligand (relative to sTRSVctl = 100) (log10 (% of sTRSVctl)); ligand: hypoxanthine (xanthine aptamer); higher = less ribozyme self-cleavage, higher mRNA level; conditions: ligand concentration (+) RNA-Seq: 5 mM, HEK293T, reporter: mCherry (pCS4076), ligand present: yes
In short: (§1)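 Total RNA, extracted with EDTA 72 h after HEK293T cells were transfected with 4 µg per 6-well well of reporter-linked ribozyme switch library plasmids, was reverse-transcribed, amplified, barcoded and sequenced. Ligand, if used, was added 1 h before transfection. RNA level was derived from RNA reads divided by DNA reads and normalized to a spiked-in non-cleaving sequence or to the top sequences. This was multiplied by 100 and log10-transformed, with the top set of 25 sequences and a ≥100 DNA read minimum.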

hypoxanthine [2] = variants of: B1; experiment: normalized RNA/DNA level without ligand (relative to sTRSVctl = 100) (log10 (% of sTRSVctl)); ligand: hypoxanthine (xanthine aptamer); higher = less ribozyme self-cleavage, higher mRNA level; conditions: HEK293T, reporter: mCherry (pCS4076), ligand present: no
In short: as §1

| Variant | normalized RNA/DNA level with ligand (log10) (hypoxanthine [1]) | normalized RNA/DNA level without ligand (log10) (hypoxanthine [2]) |
| --- | --- | --- |
| GACAAC | 1.93 ± 0.072 | 1.73 ± 0.021 |
| AUCUGC | 1.97 ± 0.04 | 1.88 ± 0.022 |
| CUAGCG | 1.91 ± 0.068 | 1.824 ± 0.0032 |
| ACCGGA | 1.94 ± 0.039 | 1.903 ± 0.014 |
| CCUCAC | 1.99 ± 0.027 | 2.07 ± 0.14 |
| GCUUAU | 1.98 ± 0.053 | 1.81 ± 0.019 |
| UUCGUC | 2.0298 ± 0.00024 | 2.03 ± 0.041 |
| UCAGAG | 1.9 ± 0.046 | 1.58 ± 0.066 |
| UCAGAA | 1.9 ± 0.044 | 1.665 ± 0.0042 |
| UCACGU | 1.92 ± 0.042 | 1.78 ± 0.062 |
| UCGAUU | 1.912 ± 0.013 | 1.55 ± 0.12 |
| AUUACU | 1.956 ± 0.0042 | 1.819 ± 0.017 |
| UGAAUA | 1.93 ± 0.026 | 1.86 ± 0.019 |
| AGCGGC | 1.959 ± 0.012 | 1.86 ± 0.042 |
| UGAAGG | 1.83 ± 0.055 | 1.48 ± 0.062 |
| CGUGUG | 1.903 ± 0.015 | 1.75 ± 0.08 |
| ACCGAA | 1.897 ± 0.018 | 1.74 ± 0.045 |
| CAAAUU | 1.95 ± 0.029 | 1.806 ± 0.014 |
| UUUCAG | 1.9 ± 0.021 | 1.71 ± 0.042 |
| CCUAUC | 2.03 ± 0.028 | 2.04 ± 0.03 |
| UCGGUG | 1.9763 ± 0.0017 | 1.67 ± 0.028 |
| GAUAUU | 1.8969 ± 0.0013 | 1.84 ± 0.038 |
| AUUGCA | 1.9 ± 0.0078 | 1.8 ± 0.026 |
| CAGACG | 1.98 ± 0.035 | 1.8 ± 0.081 |

| Variant | normalized RNA/DNA level with ligand (log10) (hypoxanthine [1]) | normalized RNA/DNA level without ligand (log10) (hypoxanthine [2]) |
| --- | --- | --- |
| GUAUUU | 1.94 ± 0.079 | 1.859 ± 0.018 |
| GACACU | 1.912 ± 0.0036 | 1.905 ± 0.008 |
| GGUGGU | 1.96 ± 0.084 | 1.86 ± 0.061 |
| UGACUG | 1.912 ± 0.0096 | 1.77 ± 0.043 |
| CCCGUA | 1.92 ± 0.015 | 1.85 ± 0.035 |
| CCCGUG | 1.97 ± 0.026 | 1.812 ± 0.0064 |
| GCCACG | 1.905 ± 0.0023 | 1.656 ± 0.0069 |
| AUGAUC | 1.98 ± 0.039 | 1.93 ± 0.022 |
| GCCCGA | 2.012 ± 0.015 | 1.719 ± 0.0081 |
| UAUCUA | 1.92 ± 0.059 | 1.89 ± 0.024 |
| CCAUGC | 1.95 ± 0.051 | 1.88 ± 0.069 |
| CCAUGU | 1.913 ± 0.013 | 1.828 ± 0.016 |
| AUAUCC | 1.938 ± 0.015 | 1.876 ± 0.018 |
| AUAUCU | 1.89 ± 0.026 | 1.844 ± 0.016 |
| GCAUUA | 1.92 ± 0.023 | 1.877 ± 0.01 |
| UUAUGC | 1.94 ± 0.039 | 1.874 ± 0.0042 |
| UCUGCG | 2.01 ± 0.08 | 1.73 ± 0.015 |
| AAUUGC | 1.905 ± 0.013 | 1.82 ± 0.046 |
| ACCCUU | 1.974 ± 0.013 | 1.92 ± 0.06 |
| AUGGGG | 1.88 ± 0.08 | 1.4 ± 0.081 |
| CACCCU | 1.96 ± 0.034 | 1.91 ± 0.096 |
| GAAAUC | 1.97 ± 0.022 | 1.88 ± 0.078 |
| UCUUCG | 1.93 ± 0.086 | 1.7 ± 0.11 |
| UUCCGA | 1.97 ± 0.029 | 1.94 ± 0.03 |

| Variant | normalized RNA/DNA level with ligand (log10) (hypoxanthine [1]) | normalized RNA/DNA level without ligand (log10) (hypoxanthine [2]) |
| --- | --- | --- |
| AGGUCU | 1.95 ± 0.028 | 1.813 ± 0.013 |
| UACGUC | 2.0228 ± 0.00028 | 1.94 ± 0.051 |
| UAAGCA | 1.89 ± 0.031 | 1.8271 ± 0.0017 |
| GGUCUU | 1.933 ± 0.018 | 1.94 ± 0.025 |
| CUGCCG | 1.96 ± 0.082 | 1.8 ± 0.026 |
| CUGCCU | 1.95 ± 0.097 | 1.92 ± 0.036 |
| ACCCAG | 1.83 ± 0.03 | 1.48 ± 0.044 |
| GCGGGC | 1.86 ± 0.046 | 1.58 ± 0.084 |
| UGCUUA | 1.937 ± 0.019 | 1.95 ± 0.046 |
| GUUUGU | 1.95 ± 0.03 | 1.885 ± 0.01 |
| UGGAUA | 1.96 ± 0.042 | 1.84 ± 0.02 |
| GGGGGG | 1.94 ± 0.03 | 1.65 ± 0.049 |
| ACAACC | 1.91 ± 0.04 | 1.91 ± 0.013 |
| UUUAUC | 1.97 ± 0.03 | 1.99 ± 0.021 |
| CGGGGG | 1.86 ± 0.032 | 1.25 ± 0.059 |
| GUAACA | 1.89 ± 0.0062 | 1.8412 ± 0.00038 |
| GCCGCU | 1.98 ± 0.05 | 1.95 ± 0.046 |
| CUUCUG | 1.948 ± 0.013 | 1.91 ± 0.053 |
| UUAGCA | 1.95 ± 0.025 | 1.85 ± 0.025 |
| GCUGCU | 1.92 ± 0.076 | 1.884 ± 0.013 |
| GCUGCC | 1.96 ± 0.15 | 1.83 ± 0.093 |
| CUUGGC | 1.95 ± 0.069 | 1.9 ± 0.089 |
| UCCUUA | 1.956 ± 0.015 | 1.87 ± 0.069 |
| AAUUCU | 1.9751 ± 0.00092 | 1.855 ± 0.0071 |

| Variant | normalized RNA/DNA level with ligand (log10) (hypoxanthine [1]) | normalized RNA/DNA level without ligand (log10) (hypoxanthine [2]) |
| --- | --- | --- |
| UAUCCU | 1.958 ± 0.0052 | 1.9 ± 0.03 |
| UAGCUU | 2.003 ± 0.015 | 1.84 ± 0.024 |
| UAGCUC | 1.98 ± 0.034 | 2.03 ± 0.038 |
| GCGCCA | 1.97 ± 0.025 | 1.711 ± 0.01 |
| GCGCCU | 2 ± 0.055 | 1.78 ± 0.052 |
| CAGCGC | 2.01 ± 0.038 | 1.847 ± 0.007 |
| UUUCGG | 1.964 ± 0.012 | 1.94 ± 0.072 |
| UCGCAC | 1.97 ± 0.069 | 1.827 ± 0.014 |
| CAGUAA | 1.855 ± 0.012 | 1.53 ± 0.081 |
| GUUGCU | 1.97 ± 0.069 | 1.862 ± 0.0076 |
| CAAGAU | 1.94 ± 0.048 | 1.76 ± 0.048 |
| UCCGUA | 1.956 ± 0.0079 | 1.7408 ± 0.0014 |
| GGGACU | 1.872 ± 0.0089 | 1.91 ± 0.024 |
| CAGGGU | 1.884 ± 0.017 | 1.75 ± 0.021 |
| AUCGCU | 1.91 ± 0.024 | 1.84 ± 0.028 |
| UACCGC | 1.942 ± 0.0069 | 1.8 ± 0.039 |
| CCAUAG | 1.894 ± 0.013 | 1.55 ± 0.06 |
| UACUCG | 1.929 ± 0.009 | 1.72 ± 0.072 |
| UCUCUU | 1.94 ± 0.043 | 1.814 ± 0.017 |
| CAAAAU | 1.88 ± 0.035 | 1.763 ± 0.0036 |
| GGCUUG | 1.93 ± 0.071 | 1.66 ± 0.04 |
| GUUAUC | 1.96 ± 0.049 | 1.86 ± 0.037 |
| GUUAUU | 1.971 ± 0.0054 | 1.916 ± 0.0092 |
| GACCGC | 1.89 ± 0.029 | 1.7634 ± 0.0011 |

| Variant | normalized RNA/DNA level with ligand (log10) (hypoxanthine [1]) | normalized RNA/DNA level without ligand (log10) (hypoxanthine [2]) |
| --- | --- | --- |
| GGAGGC | 1.82 ± 0.08 | 1.37 ± 0.057 |
| UUACAG | 1.92 ± 0.029 | 1.63 ± 0.036 |
| CUAUAG | 1.93 ± 0.019 | 1.69 ± 0.068 |
| CAUAUU | 1.91 ± 0.044 | 1.8 ± 0.041 |
| CCCUUG | 1.984 ± 0.013 | 1.84 ± 0.045 |
| GAGCUU | 1.92 ± 0.1 | 1.846 ± 0.0057 |
| AGAAUA | 1.92 ± 0.012 | 1.77 ± 0.03 |
| ACUGUC | 1.99 ± 0.026 | 1.898 ± 0.0079 |
| GAAGCU | 1.982 ± 0.015 | 1.84 ± 0.031 |
| CAUCGG | 1.92 ± 0.055 | 1.63 ± 0.036 |
| CUGCGG | 1.96 ± 0.1 | 1.902 ± 0.0065 |
| CGCAGC | 1.96 ± 0.041 | 1.87 ± 0.025 |
| CUGCUG | 1.92 ± 0.094 | 1.815 ± 0.0021 |
| AUUCUA | 1.92 ± 0.041 | 1.84 ± 0.062 |
| CAACCU | 1.98 ± 0.049 | 1.911 ± 0.0025 |
| CAACCG | 1.95 ± 0.096 | 1.89 ± 0.028 |
| GCCCAU | 1.929 ± 0.0057 | 1.866 ± 0.00087 |
| UAGCCU | 2 ± 0.037 | 1.953 ± 0.006 |
| CUGUAC | 1.93 ± 0.033 | 1.75 ± 0.093 |
| UUCAGU | 1.947 ± 0.013 | 1.83 ± 0.036 |
